Tests used:
adrenal glands = experiment: Intraperitoneal recombinant CGH for two weeks, adrenal weight; format: in vivo, mice; details: 0.25 mg/kg CGH i.p. daily, day 15, female C57BL/6
Description: Summary: Mice were exposed to CGH through infection with adenovirus particles expressing GPHA2 and GPHB5, leading to overexpression and secretion of CGH from the liver of these animals. […] The hypertrophy was apparent in the inner cortical layers, the zona fasciculata and the zona reticularis. Similarly, mice were exposed to CGH through intraperitoneal injection of recombinant CGH protein alone, recombinant CGH protein along with the glucocorticoid Dexamethasone (Dex), Dex alone, or PBS alone daily for two weeks.
Sixteen C57BL/6 female mice at 8 weeks of age were separated into four groups. The first group received daily injections of 0.25 mg/kg of recombinant CGH protein intraperitoneally. The second group received daily injections of PBS using the same procedure. The third group received daily injections of 0.25 mg/kg of CGH plus 0.05 mg/kg Dex and the final group received 0.5 mg/kg Dex, alone. Animals were sacrificed on day 15 and the adrenal glands were isolated and weighed. Example 5 describes the expression and purification of recombinant CGH protein used in this experiment.

[1] = test system: neutrophil infiltration in the ears; experiment: Neutrophil (Gr-1) histomorphometry of ears in DTH experiment #1; format: in vivo, mice
Protocol: Ears from mice in DTH experiment #1 were analyzed by immunohistochemistry to assess which cell types were most affected by CGH treatment. Ears were fixed in Zinc/Tris buffer (2.3 mM calcium acetate/31.6 mM zinc acetate/36.7 mM zinc chloride in 0.1M Tris-HCL buffer, pH 7.4) for 24 hours at room temperature and stained with antibodies specific for CD4, CD8, CD11c, and Gr-1 (neutrophils). […] Ears were stained using a TechMate 500 autoimmunostainer (Biotech/Ventana) MIP protocol with some modifications. […] This step was followed, after a wash, by biotinylated rabbit anti-rat IgG secondary antibody (Dako, used at 10 ug/ml in PBS with 2% normal rabbit serum and 2% nonfat dry milk) for 45 min. The sections were then washed and treated with HP Block (1.5% H2O2 in 50% methanol) 3 times, 7 min each, followed by 25 min in avidin-biotin complex, 3 times of 4 min each in DAB (Diaminobenzidine), then with Methyl green for 10 min.
From this staining procedure, there was a clear reduction in the number of neutrophils infiltrating the ears of those mice treated with CGH or Dex, compared to the PBS-treated controls. Histomorphometry was performed to obtain the average pixel density of neutrophils per unit length (1 mm) present in the ear samples. Despite a fair amount of variability among each group, there was a significant reduction in neutrophil staining in the Dex and low dose CGH groups, as well as a nearly significant (p=0.0507) reduction in the high dose CGH group (see TABLE 5, p values).

[2] = 0.2 mg/kg CGH i.p. at challenge (day 7)
[3] = 2 mg/kg CGH i.p. at challenge (day 7)

B1: CGH: heterodimeric protein hormone comprised of alpha subunit GPHA2 and beta subunit GPHB5, recombinantly produced in CHO cells (protein)
chain 1: QEAVIPGCHLHPFNVTVRSDRQGTCQGSHVAQACVGHCESSAFPSRYSVLVASGYRHNITSVSQCCTISGLKKVKVQLQCVGSRREELEIFTARACQCDMCRLSRY
chain 2: ASSGNLRTFVGCAVREFTFLAKKPGCRGLRITTDACWGRCETWEKPILEPPYIEAHHRVCTYNETKQVTVKLPNCAPGVDPFYTYPVAIRCDCGACSTATTECETI
For B1, the “Average adrenal weight/100 g body weight” value (adrenal glands) was 22.26 +/− 0.99, the “Pixel density: Neutrophils, left ear (PBS)” value [1, 2] was 544 +/− 1044 and the “Pixel density: Neutrophils, right ear (OVA)” value [1, 2] was 5605 +/− 3725. For the same molecule, the “Pixel density: Neutrophils, left ear (PBS)” value [1, 3] was 273 +/− 399 and the “Pixel density: Neutrophils, right ear (OVA)” value [1, 3] was 5535 +/− 5331.

Source: patent publication US20070014736A1, “Methods of delivering corticotroph-derived glycoprotein hormone” (priority 2005, published 2007)
